{"source": "paper PMC9296572", "about": "“An Unusual Oxidative Rearrangement Catalyzed by a Divergent Member of the 2‐Oxoglutarate‐Dependent Dioxygenase Superfamily during Biosynthesis of Dehydrofosmidomycin” (Angewandte Chemie (International Ed. in English), 2022)", "test_system": "C[N+](C)(C)CCP(=O)([O-])O", "test": "O2 consumption, Clark-type electrode, initial rates in first minute", "type": "biochemical, Streptomyces lavendulae", "conditions": "apparent; co-substrates 2-oxoglutarate and O2, Fe(II); two-turnover enzyme, value assumed to pertain to the desaturation to TMAVP"}
{"substance": "DfmD (Streptomyces lavendulae)", "values": [{"measurement": "Km", "result": 160, "unit": "µM"}, {"measurement": "kcat", "result": 0.04, "unit": "s⁻¹"}]}
